This is an account of results in patent US20210121406A1 (AstraZeneca / MedImmune, published 2021).

The chains are these.
B1: cyno TSLP (ligand, cynomolgus (cyno))
chain: YDFTNCDFQKIEADYLRTISKDLITYMSGTKSTDFNNTVSCSNRPHCLTEIQSLTFNPTPRCASLAKEMFARKTKATLALWCPGYSETQINATQAMKKRRKRKVTTNKCLEQVSQLLGLWRRFIRTLLKKQ
notes: As used in solution in the KinExA assay; also called Cynomolgus TSLP
B2: Fab1 (Fab, V domains shown)
VH: QMQLVESGGGVVQPGRSLRLSCAASGFTFRTYGMHWVRQAPGKGLEWVAVIWYDGSNKHYADSVKGRFTITRDNSKNTLNLQMNSLRAEDTAVYYCARAPQWELVHEAFDIWGQGTMVTVSS
VL: SYVLTQPPSVSVAPGQTARITCGGNNLGSKSVHWYQQKPGQAPVLVVYDDSDRPSWIPERFSGSNSGNTATLTISRGEAGDEADYYCQVWDSSSDHVVFGGGTKLTVLG
notes: CDRs of anti-TSLP mAb A5 (WO 2009/035577) cloned into an IgG1 Fab scaffold; also called anti-TSLP Fab; MEDI8630

The target of experiment [1] is B2. The experiment can be described thus: KinExA, cyno TSLP titrated into 1000 pM fixed Fab1 (filled diamonds); free Fab1 captured on hu TSLP-coated beads.
The target in experiment [2] is B2. The experiment can be described thus: KinExA, cyno TSLP titrated into 40 pM fixed Fab1 (open squares); free Fab1 captured on hu TSLP-coated beads. (In general: Kinetic exclusion samples the free partner from a solution-phase mixture.)
The experiment “cyno TSLP” has as its target B1. The experiment can be described thus: KinExA, solution phase, global 1:1 fit.
Experiment [3] addresses T1, N-terminally tagged biotinylated cyno TSLP (cynomolgus (cyno), UniProt A0A7N9CAT7 29-159, biotinylated (site not stated)).
T1 construct: Captured on streptavidin in the Biacore assay; also called Cynomolgus TSLP; recombinant mammalian cell-expressed cyno TSLP; not shown: N-terminal tag
Kind of experiment: SPR (Biacore 8K), biotinylated TSLP on streptavidin, Fab1 in flow, 1:1 Langmuir model.

Experiment [4] concerns the target T2, biotinylated His-Avi hu TSLP (human, UniProt Q969D9 29-159, biotinylated (site not stated)).
T2 construct: also called biotinylated TSLP; not shown: His-Avi tag
Kind of experiment: HTRF competition; competitor DyLight-labelled tezepelumab.

For the molecule B1, the “IC50 (read off the curve)” value with Fab1 [1] was about 0.6 nM; with Fab1 [2] it was about 0.04 nM. The term Kd denotes the equilibrium constant for the complex coming apart. Lower therefore signals a tighter complex. Regarding B2, the Kd in the experiment with cyno TSLP came to 0.0136 nM; in experiment [3], 0.0884 nM.

B3: Fab2 (Fab, V domains shown)
VH: QMQLVESGGGVVQPGRSLRLSCAASGFTFRTYGMHWVRQAPGKGLEWVAVIWYDGSNKHYADSVKGRFTITRDNSKNTLNLQMNSLRAEDTAVYYCARAPQWELVHEAFDIWGQGTMVTVSS
VL: SYVLTQPPSVSVAPGQTARITCGGNNIGSKSVHWYQQKPGQAPVLVVYDDSDRPSWIPERFSGSNSGNTATLTISRGEAGDEADYYCQVWDSSSDHVVFGGGTKLTVL
The term IC50 denotes the concentration that inhibits the measured activity by half. Molecule B3 came in with an IC50 in experiment [4] of 0.29 nM.

B4: Fab7 (Fab, V domains shown)
VH: QMQLVESGGGVVQPGRSLRLSCAASGFTFRTYGMHWVRQAPGKGLEWVAVIWYDGSNKHYADSVKGRFTITRDNSKNTLNLQMNSLRAEDTAVYYCARAPQWELVHEAFDIWGQGTMVTVSS
VL: SYVLTQPPSVSVAPGQTARITCGGNQLGSKSVHWYQQKPGQAPVLVVYDDSDRPSWIPERFSGSNSGNTATLTISRGEAGDEADYYCQVWDSSSDHVVFGGGTKLTVL
notes: VL as labelled 'LIGHT CHAIN VL FAB7'
In turn, B4 had an IC50 in experiment [4] of 0.24 nM.

B5: Fab5 (Fab, V domains shown)
VH: QMQLVESGGGVVQPGRSLRLSCAASGFTFRTYGMHWVRQAPGKGLEWVAVIWYDGSNKHYADSVKARFTITRDNSKNTLNLQMNSLRAEDTAVYYCARAPQWELVHEAFDIWGQGTMVTVSS
VL: SYVLTQPPSVSVAPGQTARITCGGNNLGSKSVHWYQQKPGQAPVLVVYDDSDRPSWIPERFSGSNSGNTATLTISRGEAGDEADYYCQVWDSSSDHVVFGGGTKLTVL
notes: Only the changed VH is printed
B5 displayed an IC50 in experiment [4] of 0.42 nM.

B6: Fab9 (Fab, V domains shown)
VH: QMQLVESGGGVVQPGRSLRLSCAASGFTFRTYGMHWVRQAPGKGLEWVAVIWYDGSNKHYADSVKGRFTITRDNSKNTLNLQMNSLRAEDTAVYYCARAPQWELVHEAFDIWGQGTMVTVSS
VL: SYVLTQPPSVSVAPGQTARITCGGNNLGSKSVHWYQQKPGQAPVLVVYDDSDRPSWIPERFSGSNSGNTATLTISRGEAGDEADYYCQVWDSTSDHVVFGGGTKLTVL
notes: Only the changed VL is printed
In the case of B6, the IC50 in experiment [4] came out at 0.29 nM.

B7: Fab3 (Fab, V domains shown)
VH: QMQLVESGGGVVQPGRSLRLSCAASGFTFRTYGMHWVRQAPGKGLEWVAVIWYDGSNKHYADSVKGRFTITRDNSKNTLNLQMNSLRAEDTAVYYCARAPQWELVHEAFDIWGQGTMVTVSS
VL: SYVLTQPPSVSVAPGQTARITCGGNNVGSKSVHWYQQKPGQAPVLVVYDDSDRPSWIPERFSGSNSGNTATLTISRGEAGDEADYYCQVWDSSSDHVVFGGGTKLTVL
notes: as for B6
In experiment [4], B7 yielded an IC50 of 0.24 nM.

B8: Fab8 (Fab, V domains shown)
VH: QMQLVESGGGVVQPGRSLRLSCAASGFTFRTYGMHWVRQAPGKGLEWVAVIWYDGSNKHYADSVKGRFTITRDNSKNTLNLQMNSLRAEDTAVYYCARAPQWELVHEAFDIWGQGTMVTVSS
VL: SYVLTQPPSVSVAPGQTARITCGGNNLGSKSVHWYQQKPGQAPVLVVYDDSDRPSWIPERFSGSNSGNTATLTISRGEAGDEADYYCQVWDTSSDHVVFGGGTKLTVL
notes: as for B6
As to B8, in experiment [4], the IC50 was determined as 0.29 nM.

B9: Fab4 (Fab, V domains shown)
VH: QMQLVESGGGVVQPGRSLRLSCAASGFTFRTYGMHWVRQAPGKGLEWVAVIWYDGSNKHYAESVKGRFTITRDNSKNTLNLQMNSLRAEDTAVYYCARAPQWELVHEAFDIWGQGTMVTVSS
VL: SYVLTQPPSVSVAPGQTARITCGGNNLGSKSVHWYQQKPGQAPVLVVYDDSDRPSWIPERFSGSNSGNTATLTISRGEAGDEADYYCQVWDSSSDHVVFGGGTKLTVL
notes: as for B5
The molecule B9 had an IC50 in experiment [4] of 0.36 nM.

B10: Fab6 (Fab, V domains shown)
VH: QMQLVESGGGVVQPGRSLRLSCAASGFTFRTYGMHWVRQAPGKGLEWVAVIWYDGSNKHYADSVKGRFTITRDNSKNTLNLQMNSLRAEDTAVYYCARAPQWELVHEAFDIWGQGTMVTVSS
VL: SYVLTQPPSVSVAPGQTARITCGGQNLGSKSVHWYQQKPGQAPVLVVYDDSDRPSWIPERFSGSNSGNTATLTISRGEAGDEADYYCQVWDSSSDHVVFGGGTKLTVL
notes: as for B6
Regarding B10, in experiment [4], the IC50 came out at 0.32 nM.
